Test results: the supplement of paper PMC9732359
± gives the uncertainty stated by the source.

Assay: protein stability index of a GFP-peptide fusion (yeast GPS) (PSI 1-4); higher = more stable; sorted into four equal gates, so the index is relative within each strain
Summary of the method: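 Plasmids in a pooled yeast library fused tiled 17-residue yeast protein peptides downstream of GFP and also expressed Cherry. Mid-log cultures grown without leucine were sorted into four equal gates by GFP/Cherry fluorescence ratio. Each gate's plasmids were PCR-amplified and Illumina-sequenced, and reads were matched to strains by barcodes. The protein stability index is derived by multiplying each gate's read frequency by its gate number and summing the results.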

Sequence | protein stability index (doa10∆) | protein stability index (pdr5∆) | protein stability index (san1∆) | protein stability index (ubr1∆)
AAPKKTRKAVRPQKLRA [RPL6B] | 2.64 ± 0.11 | 2.61 ± 0.29 | 2.8 ± 0.16 | –
FLTNYNVRMDTMANILY [RPB2] | 3.58 ± 0.17 | 3.02 ± 0.098 | 3.48 ± 0.1 | 3.48 ± 0.14
EVRQETQPKAEATQDDD [NUT1] | 3.08 ± 0.13 | 3.18 ± 0.071 | 3.4 ± 0.065 | 3.16 ± 0.074
SVINNYLREDQMIDTSI [NUT1] | 2.99 ± 0.074 | 3.32 ± 0.1 | 3.32 ± 0.083 | 2.84 ± 0.082
NNNGNPGTTSTGNNNNI [GAL11] | 3.18 ± 0.12 | 3.34 ± 0.075 | 3.18 ± 0.061 | 3.23 ± 0.07
PKAISNFLIKLSELSPG [YCS4] | 2.37 ± 0.08 | 2.51 ± 0.085 | 2.08 ± 0.095 | 2.01 ± 0.056
TSKMNLSEDVNLETLVT [RPT2] | 2.6 ± 0.14 | 2.85 ± 0.16 | 2.62 ± 0.15 | 2.78 ± 0.11
IPQSQQVPQVRSMSGQP [SNF5] | 2.52 ± 0.05 | 2.55 ± 0.047 | 2.5 ± 0.047 | 2.7 ± 0.039
PLAKIYLEENKSDSQYR [MED1] | 3.15 ± 0.086 | 3.18 ± 0.065 | 3.15 ± 0.059 | 3.16 ± 0.06
SISTYKDILNLASEVGD [ECM29] | 2.63 ± 0.07 | 2.65 ± 0.076 | 2.71 ± 0.071 | 2.77 ± 0.054
TLGNALRYVIMKNPDVE [RPC19] | 2.93 ± 0.091 | 2.73 ± 0.059 | 2.46 ± 0.077 | 2.8 ± 0.055
TDKIGRSVPAPGKGILT [FAS2] | 2.95 ± 0.17 | 3.16 ± 0.13 | 2.79 ± 0.2 | 3.21 ± 0.12
CKRELAFVKQKNDSLEK [YIL149C/MLP2] | 3.26 ± 0.16 | 3.33 ± 0.17 | – | 3.43 ± 0.19
YDNEKTAELIKELKEKE [PUP2] | 3.27 ± 0.066 | 3.34 ± 0.087 | 3.44 ± 0.094 | 3.31 ± 0.064
HPQDFGNPGRIRVLFKE [SEC65] | 2.91 ± 0.077 | 2.94 ± 0.11 | 3.13 ± 0.065 | 3.11 ± 0.061
TARINNRRLFKKCIDFF [RRI2] | 2 ± 0.082 | 2.18 ± 0.059 | 1.91 ± 0.11 | 2.18 ± 0.054
PTKLLVSEVAKIMQEAT [PRE8] | 2.63 ± 0.067 | 2.58 ± 0.085 | 2.72 ± 0.11 | 2.73 ± 0.062
TLSVSHGINLQNKKNLK [SSN2] | 2.7 ± 0.062 | 2.62 ± 0.054 | 2.65 ± 0.077 | 2.78 ± 0.063
IKNLTVQLSPSNPQHII [RGR1] | 2.6 ± 0.052 | 2.74 ± 0.05 | 2.42 ± 0.062 | 2.67 ± 0.049
TTTMLQLFSTFDRLNGN [SSN2] | 3.08 ± 0.076 | 3.12 ± 0.073 | 3.28 ± 0.055 | 3.02 ± 0.041
GDYNNTVYSSEQYIQEL [SMC3] | 2.9 ± 0.11 | 3.2 ± 0.11 | 3.22 ± 0.074 | 3.14 ± 0.042
TNELWARLAILKERAKN [YGR119C/NUP57] | 3.26 ± 0.13 | 2.75 ± 0.2 | – | 3.58 ± 0.13
EGQENNYNSTSRSTEKK [SIR4] | 3.3 ± 0.17 | 3.26 ± 0.13 | 2.65 ± 0.17 | 3.25 ± 0.11
KAKNPLTHSTPKNFGIG [RPL8B] | 3.31 ± 0.13 | 3.35 ± 0.12 | 3.14 ± 0.074 | 3.08 ± 0.05
SQESINQKLALVIKSGK [RPL30] | 2.32 ± 0.097 | 2.65 ± 0.13 | 2.31 ± 0.11 | 2.4 ± 0.058
NFSNVTDLTNNSTDGAK [YIL149C/MLP2] | 2.82 ± 0.041 | 3.15 ± 0.046 | 3.41 ± 0.035 | 2.85 ± 0.034

Sequence | protein stability index (doa10∆) | protein stability index (pdr5∆) | protein stability index (san1∆) | protein stability index (ubr1∆)
EDHVEDHRKRKKSKIQL [LIN1] | 3.17 ± 0.093 | 3.25 ± 0.082 | 3.12 ± 0.059 | 3.16 ± 0.052
TKIKPFIKVVNYNHLLP [RPL27A] | 2.49 ± 0.072 | 2.35 ± 0.094 | 2.77 ± 0.093 | 2.64 ± 0.11
HLGERAASVIGMLVALG [RPC82] | 2.05 ± 0.23 | 1.71 ± 0.1 | 1.75 ± 0.21 | 2.04 ± 0.067
IVDFTLPPPPPPPGLDE [PRP8] | 3.15 ± 0.05 | 3.1 ± 0.048 | 3.2 ± 0.038 | 3.14 ± 0.039
KSLAMEHKSQVVLYNYY [CSN12] | 1.19 ± 0.053 | 1.34 ± 0.071 | 1.32 ± 0.11 | 1.55 ± 0.035
SDPVCLFVCNKDPDVPL [POP3] | 1.91 ± 0.053 | 2.35 ± 0.075 | 2.31 ± 0.084 | 2.52 ± 0.081
IDREGNARKVVGASVVV [RPS12] | 2.65 ± 0.18 | 2.75 ± 0.25 | – | 3.31 ± 0.22
ISKDCSAFACKTDEVII [BRR2] | 2.99 ± 0.12 | 3.38 ± 0.082 | 3.44 ± 0.088 | 2.88 ± 0.073
GENVFLKRISDGLSFGK [SIR3] | 3.26 ± 0.18 | 3.39 ± 0.17 | 3.42 ± 0.075 | 3.54 ± 0.09
EAELSSTKVENSAIIQN [YIL149C/MLP2] | 2.77 ± 0.11 | 2.87 ± 0.069 | 2.98 ± 0.056 | 3.13 ± 0.062
MAYFDENLNRNWRGREH [BRN1] | 3.25 ± 0.099 | 3.41 ± 0.16 | 2.99 ± 0.091 | 3.14 ± 0.095
VEIAFLFRAIYLYCLDN [YCG1] | 1.54 ± 0.065 | 1.3 ± 0.054 | 1.21 ± 0.11 | 1.2 ± 0.05
ELSVVLSGIIQDIYYLA [RRI2] | 2.32 ± 0.12 | 2.24 ± 0.14 | 2.02 ± 0.13 | 2.6 ± 0.092
TNTFGSNSAGTSLFGSS [YJL041W/NSP1] | 3.1 ± 0.083 | 2.84 ± 0.09 | 3.16 ± 0.082 | 3.15 ± 0.058
VINPQQLLKGLSLSFSK [DSN1] | 3.2 ± 0.11 | 3.1 ± 0.089 | 2.54 ± 0.086 | 3.12 ± 0.1
AQFIVISLRNNMFELAQ [SMC4] | 2.14 ± 0.11 | 1.67 ± 0.082 | 1.51 ± 0.092 | 2.02 ± 0.09
MLTIARLGFFYNDQLYV [RPN7] | 2.13 ± 0.093 | 1.66 ± 0.19 | 1.47 ± 0.29 | 2.2 ± 0.19
TLSKTTDSSALTYDRLE [PRE9] | 3.16 ± 0.1 | 2.99 ± 0.13 | 2.89 ± 0.1 | 2.94 ± 0.058
KDQLPDLESMGLTQLYK [MED7] | 2.85 ± 0.07 | 3.08 ± 0.071 | 2.87 ± 0.077 | 3.13 ± 0.069
SNAFYSVLRDTLVAQNL [SMC4] | 2.13 ± 0.086 | 2.09 ± 0.054 | 1.94 ± 0.076 | 2.13 ± 0.033
MSAPQAKILSQAPTELE [RPS7A] | 2.79 ± 0.08 | 2.9 ± 0.068 | 2.41 ± 0.1 | 2.53 ± 0.073
KETQQYELEFDTPTSGK [BRR2] | 2.99 ± 0.05 | 2.98 ± 0.055 | 3.05 ± 0.041 | 3.08 ± 0.045
THIPQTNLKNHPAYLFK [YLR018C/POM34] | 2.84 ± 0.059 | 2.83 ± 0.04 | 2.64 ± 0.054 | 2.75 ± 0.029
RGVTKVGFGESNFTSII [SMC1] | 3.56 ± 0.19 | 3.33 ± 0.11 | 3.09 ± 0.15 | 3.08 ± 0.08
PPDSDSSISVMGENEKP [RPT3] | 1.47 ± 0.16 | 1.22 ± 0.12 | 1.21 ± 0.15 | 1.77 ± 0.2
